Residue numbers refer to the chain shown, from its start. Names may count otherwise.
B1: AtCHI-1 (Arabidopsis thaliana) (protein)
chain: MSSSNACASPSPFPAVTKLHVDSVTFVPSVKSPASSNPLFLGGAGVRGLDIQGKFVIFTVIGVYLEGNAVPSLSVKWKGKTTEELTESIPFFREIVTGAFEKFIKVTMKLPLTGQQYSEKVTENCVAIWKQLGLYTDCEAKAVEKFLEIFKEETFPPGSSILFALSPTGSLTVAFSKDDSIPETGIAVIENKLLAEAVLESIIGKNGVSPGTRLSVAERLSQLMMKNKDEKEVSDHSVEEKLAKEN
B2: AtCHI-1 (Arabidopsis thaliana; V106G) (protein)
chain: B1 chain with V106G
B3: MsCHI-2 (Medicago sativa; G95V) (protein)
chain: MAASITAITVENLEYPAVVTSPVTGKSYFLGGAGERGLTIEGNFIKFTAIGVYLEDIAVASLAAKWKGKSSEELLETLDFYRDIISGPFEKLIRVSKIRELSGPEYSRKVMENCVAHLKSVGTYGDAEAEAMQKFAEAFKPVNFPPGASVFYRQSPDGILGLSFSPDTSIPEKEAALIENKAVSSAVLETMIGEHAVSPDLKRCLAARLPALLNEGAFKIGN
B4: MsCHI-2 (Medicago sativa; R36K) (protein)
chain: B3 chain with R36K, V95G
B5: MsCHI-2 (Medicago sativa) (protein)
chain: B3 chain with V95G
B6: MsCHI-2 (Medicago sativa; K97M) (protein)
chain: B3 chain with V95G, K97M
B7: MsCHI-2 (Medicago sativa; G95T) (protein)
chain: B3 chain with V95T

How the values were obtained:
purified protein [1] = substrate: O=C(/C=C/c1ccc(O)cc1)c1ccc(O)cc1O; experiment: purified protein
purified protein [2] = substrate: O=C(/C=C/c1ccc(O)cc1)c1c(O)cc(O)cc1O; experiment: purified protein
[3] = substrate: O=C(/C=C/c1ccc(O)cc1)c1ccc(O)cc1O; experiment: Michaelis-Menten kinetics of cyclization; assay type: biochemical, Medicago sativa

Protein	Km (purified protein [1]) [µM]	kcat (purified protein [1])	Km (purified protein [2]) [µM]	kcat (purified protein [2])	Km [3] [µM]	kcat [3] [min⁻¹]
B1	16.8 ± 3.5	0.064 ± 0.005 min⁻¹	62 ± 9	379 ± 35 min⁻¹	–	–
B2	–	–	19.0 ± 0.5	332 ± 34 min⁻¹	–	–
B3	65 ± 10	2.16 ± 0.02 min⁻¹	5.3 ± 2.6	512 ± 26 min⁻¹	–	–
B4	–	–	98.3 ± 1.5	25.4 ± 1.1 min⁻¹	–	–
B5	8.4 ± 2.0	2,250 ± 165 min-1	112 ± 28	11,180 ± 1,380 min-1	–	–
B6	25.7 ± 2.1	658 ± 11 min⁻¹	14.5 ± 4.2	1,300 ± 154 min-1	–	–
B7	–	–	–	–	117 ± 12	23.3 ± 1.7
